The values below come from article doi:10.1101/2025.06.10.658827.

This assay concerns the target cyXR, xanthorhodopsin from an Antarctic filamentous cyanobacterium (genus Pseudanabaena) (Pseudanabaena (Antarctic MAG, Dry Valleys)). Briefly: cryo-EM structure.

What is called stoichiometry N is a count of units in the complex or per binding partner. “cyXR, xanthorhodopsin from an Antarctic filamentous cyanobacterium (genus Pseudanabaena) (natural protein)” displayed a stoichiometry N of 5.
